The results in this text go back to patent publication US20120195909A1 (BIONOVION HOLDING B V, published 2012).

In test [1] the target is FLAG-hAPRIL (secreted form, supernatant of 293T cells transfected with pCR3-hAPRIL) (human) (UniProt O75888). The test is described as follows: ELISA, FLAG-hAPRIL captured by coated anti-FLAG polyclonal antibody. For orientation: An ELISA detects its analyte on a solid surface through an enzyme-linked reagent.
In test [2] the target is T1, FLAG-hAPRIL (secreted form, supernatant of 293T cells transfected with pCR3-hAPRIL) (human, UniProt O75888 110-250, limits assumed).
T1 construct: Used as cell supernatant; also called FLAG-APRIL; soluble APRIL in conditioned medium; not shown: FLAG tag
T1 sequence (looked up): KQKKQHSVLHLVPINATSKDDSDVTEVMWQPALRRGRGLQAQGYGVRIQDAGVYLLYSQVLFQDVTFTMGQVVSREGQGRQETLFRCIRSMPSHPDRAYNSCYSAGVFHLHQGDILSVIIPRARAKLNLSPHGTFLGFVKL
The test is described as follows: blocking ELISA, FLAG-hAPRIL pre-incubated with titrated antibody, binding to coated TACI-Fc detected with anti-FLAG. On the procedure: (§1) Blocking abilities of hAPRIL.01A and hAPRIL.03A were confirmed using purified antibodies. Maxisorp 96-well plates were coated with either BCMA-Fc (R&D Systems) or TACI-Fc (R&D Systems) at 50 ng/well overnight at 4° C. and blocked with 10% Goat serum/PBST for 1 hour at RT. FLAG-hAPRIL containing supernatants were pre-incubated with hAPRIL.01A, hAPRIL.03A, and Aprily-5 antibodies (10 μg/ml high test with 10-fold dilutions in triplicates) for 1 h at RT. Plates were washed with PBST 3 times, and bound FLAG-hAPRIL was detected by incubation with 1 μg/ml anti-FLAG BioM2-biotin antibody (Sigma) and 1:2,000 Streptavidin-HRP (Southern Biotechnology) for 1 hour each at RT. After the final PBST wash, APRIL-bound BCMA-Fc was visualized with OptiEIA TMB substrate (BD Biosciences). […] The concentration of half-maximum inhibition (IC₅₀) was determined for hAPRIL.01A as 1.2 and 0.4 nM for BCMA-Fc and TACI-Fc, respectively. The IC₅₀ for hAPRIL.03A to TACI-Fc was determined as 1.3 nM.

Test [3] concerns the target T1, FLAG-hAPRIL (secreted form, supernatant …). The test is described as follows: blocking ELISA, FLAG-APRIL supernatant pre-mixed with titrated antibody, binding to coated TACI-Fc (sheet: coated at 1 µg/ml) detected with anti-Flag-HRP [right graph]. The method, then: (§2) To study whether the blocking characteristics of hAPRIL.01A and hAPRIL.03A are unique, all known commercially available anti-APRIL antibodies were tested for their ability to block the interaction of FLAG-hAPRIL to BCMA-Fc and TACI-Fc (FIGS. 3A and 3B). Blockade of receptor binding was studied using an ELISA. […] The plate was then washed with PBS/0.2% Tween and then incubated with for 1 hour at 37° C. with 100 μl PBS/5% BSA per well. The plate was then washed four times with PBS/0.2% Tween. In a separate plate APRIL monoclonal antibodies were pre-mixed with APRIL supernatant and incubated for 30 minutes on ice. Conditioned medium containing soluble APRIL was diluted 1 in 4 and mixed with an equal volume of PBS containing the antibodies titrated in doubling dilutions starting with 5 μg/ml. 100 μl of the pre-incubated mix was transferred to the ELISA plate and incubated for 2 hours at 37° C. The plate was then washed four times with PBS/0.2% Tween. Anti-Flag-HRP antibody was then diluted in PBS at a concentration of 1:1000 and then 100 μl of this added to each well and incubated for 1 hour at 37° C. The plate was then washed four times with PBS/0.2% Tween and then 100 μl of ABTS added to each well (the ABTS was diluted to the ratio 10 ml of reagent plus 5 μl of H₂O₂ made immediately before addition). The colour was allowed to develop and then the OD at 405 nm read on an ELISA plate reader. […]

For test [4] the target is unchanged. The test is described as follows: blocking ELISA, FLAG-APRIL supernatant pre-mixed with titrated antibody, binding to coated TACI-Fc (sheet: coated at 1 µg/ml) detected with anti-Flag-HRP [left graph]. On the procedure: as §2
Test [5] addresses T2, Recombinant human APRIL (R&D Systems) (human, UniProt O75888 105-250).
T2 construct: Bought protein; also called recombinant APRIL
T2 sequence (looked up): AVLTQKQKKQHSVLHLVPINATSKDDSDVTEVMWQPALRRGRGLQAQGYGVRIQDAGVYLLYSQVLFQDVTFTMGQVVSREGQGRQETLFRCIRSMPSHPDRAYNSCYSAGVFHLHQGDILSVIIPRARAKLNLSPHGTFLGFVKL
The test is described as follows: bio-light interferometry (Octet), antibody amine-coupled to the biosensor, APRIL at 1 and 2 µg/ml, 1:1 global fit; column printed as kobs. On the procedure:
(§3) To further characterize the binding characteristics of the antibodies, each was profiled using bio-light interferometry on the Octet system (ForteBio, Menlo Park, Calif.) to elucidate binding kinetics and calculate equilibrium binding constants. This assay was performed by coupling purified hAPRIL.01A and hAPRIL.03A antibodies to amine-reactive biosensors (Fortebio) using standard amine chemistry. Recombinant human APRIL (R&D Systems) binding to and dissociation from the biosensors was then observed at two concentrations, 1 and 2 μg/ml. Specifically, amine-reactive biosensors were pre-wetted by immersing them in wells containing 0.1M MES pH=5 for 2 minutes. The biosensors were then activated using a 0.1M NHS/0.4M EDC mixture for 5 minutes. hAPRIL.01A and hAPRIL.03A antibodies were coupled by immersing the biosensors in a solution of 5 μg/mL of the antibody for 18 minutes. The biosensor surface was quenched using a solution of 1M ethanolamine pH 8.5 for 7 minutes. Biosensors were equilibrated in PBS for 5 minutes. […] Dissociation was measured after transfer of the biosensors into PBS and monitoring of the interferometry signal for 20 minutes. The observed on and off rates (kobs and kd) were fit using a 1:1 binding global fit model, and the equilibrium binding constant KD was calculated (see Table 1).
(BLI is a label-free optical method that tracks binding on a fibre tip over time.)

Test [6] deals with T1, FLAG-hAPRIL (secreted form, supernatant …). The test is described as follows: blocking ELISA, FLAG-APRIL supernatant pre-mixed with titrated antibody, binding to BCMA-Fc coated at 1 µg/ml detected with anti-Flag-HRP [left graph]. On the procedure: (§4) To study whether the blocking characteristics of hAPRIL.01A and hAPRIL.03A are unique, all known commercially available anti-APRIL antibodies were tested for their ability to block the interaction of FLAG-hAPRIL to BCMA-Fc and TACI-Fc (FIGS. 3A and 3B). Blockade of receptor binding was studied using an ELISA. An ELISA plate was coated with 50 with 100 μl of BCMA-Fc at 1 μg/ml or with 100 μl of TACI-Fc at a concentration of 2 μg/ml in coating buffer and incubated overnight at 4° C. The plate was then washed with PBS/0.2% Tween and then incubated with for 1 hour at 37° C. with 100 μl PBS/5% BSA per well. The plate was then washed four times with PBS/0.2% Tween. In a separate plate APRIL monoclonal antibodies were pre-mixed with APRIL supernatant and incubated for 30 minutes on ice. Conditioned medium containing soluble APRIL was diluted 1 in 4 and mixed with an equal volume of PBS containing the antibodies titrated in doubling dilutions starting with 5 μg/ml. 100 μl of the pre-incubated mix was transferred to the ELISA plate and incubated for 2 hours at 37° C. The plate was then washed four times with PBS/0.2% Tween. Anti-Flag-HRP antibody was then diluted in PBS at a concentration of 1:1000 and then 100 μl of this added to each well and incubated for 1 hour at 37° C. […] The colour was allowed to develop and then the OD at 405 nm read on an ELISA plate reader. […]

In test [7] the target is T2, Recombinant human APRIL (R&D Systems). The test is described as follows: bio-light interferometry (Octet), antibody amine-coupled to the biosensor, APRIL at 1 and 2 µg/ml, 1:1 global fit. The method, then: as §3
For test [8], the target named is T1, FLAG-hAPRIL (secreted form, supernatant …). The test is described as follows: ELISA, FLAG-hAPRIL captured by coated anti-FLAG polyclonal antibody. The method, then: Protein-based ELISA experiments using purified hAPRIL.01A and hAPRIL.03A antibodies were performed to determine apparent binding affinities (reported as EC₅₀ values). Binding was compared to mouse anti-hAPRIL IgG1 Aprily-5 (Alexis). Maxisorp 96-well immunoplates (Nunc) were coated with either rabbit anti-FLAG polyclonal antibody (Sigma) or BCMA-Fc (R&D Systems) at 50 ng/well in PBS overnight at 4° C. and blocked with 10% Goat serum/PBST for 1 hour at RT. Plates were washed with PBST 3 times and incubated with supernatant (1:4 in PBS) containing FLAG-hAPRIL for 1 hour at RT. Plates were again washed with PBST 3 times and incubated with hAPRIL.01A, hAPRIL.03A, and Aprily-5 antibodies (10 μg/ml high test with 10-fold dilutions in triplicates) for 1 h at RT. After three washes with PBST, bound antibodies were detected with goat anti-mouse IgG-HRP (1:2,000) (Southern Biotechnology) for 1 hour at RT. Plate was washed three times with PBST, and APRIL-reactivity was visualized with OptiEIA TMB substrate (Becton Dickinson). The concentration for half-maximal binding is reported as a measure of relative binding affinity. When FLAG-hAPRIL was captured by the anti-FLAG antibody (FIG. 2A), EC₅₀ values for hAPRIL.01A, hAPRIL.03A and Aprily-5 were calculated as 2.2, 1.4, and 1.7 nM, respectively. […] In contrast, binding of hAPRIL.03A to the APRIL-BCMA complex was observed.

The target is the same in test [9]. The test is described as follows: blocking ELISA, FLAG-APRIL supernatant pre-mixed with titrated antibody, binding to BCMA-Fc coated at 1 µg/ml detected with anti-Flag-HRP [right graph]. On the procedure: as §4
Test [10] has the same target. The test is described as follows: blocking ELISA: antibody pre-incubated with FLAG-hAPRIL, binding to coated TACI-Fc (competitor) detected.
The next test concerns the target T3, mouse APRIL (mouse, UniProt Q9D777 96-241, limits assumed).
T3 sequence (looked up): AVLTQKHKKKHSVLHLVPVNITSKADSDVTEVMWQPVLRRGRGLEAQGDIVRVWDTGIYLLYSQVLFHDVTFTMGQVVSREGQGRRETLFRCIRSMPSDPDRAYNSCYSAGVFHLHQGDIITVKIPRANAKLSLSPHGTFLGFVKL
The test is described as follows: BIAcore. (In SPR one partner is held on a chip, and binding of the other changes the refractive index at the surface.)

The target in test [11] is T1, FLAG-hAPRIL (secreted form, supernatant …). The test is described as follows: blocking ELISA: antibody pre-incubated with FLAG-hAPRIL, binding to coated BCMA-Fc (competitor) detected. On the procedure: as §1

The EC50 is the concentration that produces a half-maximal response. High values mean weaker potency, low ones greater potency. “mouse anti-hAPRIL IgG1 Aprily-5 (Alexis) (antibody)” yielded a concentration giving a half-maximal response (EC50) in test [1] of 1.7 nM.

B1: hAPRIL.01A (antibody, IgG1, V domains shown)
VH: EVQLQQSGPELVKPGASVKMSCKASGYTFTSYVMHWVKQKPGQGLEWIGYINPYNDAPKYNEKFKGKATVTSDKSSGTAYMELSSLTSEDSAVYYCARGLGYALYYAMDYWGQGTSVTVSS
VL: DIVMTQSQKFKSTSVGDRVSVTCKASQNVGNNVAWYQQKAGQSPKALISSASNRDSGVPDRFTGSGSGTDFTLTISNVQSEDLADYFCQQYNIYPFTFGSGTELEIK
notes: Mouse antibody from a hybridoma, IgG1, kappa
The kon is a measure of how fast the partners come together. Usually Kd stands for the concentration at which binding is half-saturated. As usually defined, the koff is the first-order rate constant of dissociation. As a reminder, the IC50 is the concentration needed to halve the response being measured. Lower therefore signals greater potency in that assay. For the molecule B1, the “IC50 (read off the curve)” value is around 0.2 mg/L in test [2]; around 0.7 mg/L in test [3]; around 0.7 mg/L in test [4]; around 0.8 mg/L in test [6]; around 0.9 mg/L in test [9]. For the same molecule, the kon in test [5] worked out at 48900 M⁻¹ s⁻¹. The equilibrium dissociation constant (Kd) in test [7] was found to be 0.753 nM. Besides, in test [7], the koff stood at 3.69e-05 s⁻¹. For the same molecule, a half-maximal response in [8] (EC50) required 2.2 nM. The IC50 stood at 0.4 nM in test [10] and 1.2 nM in test [11]. In addition, in the test with mouse APRIL, the binding result is “no binding”.
